Common to all, as to test: ELISA; host protein coated on microtiter wells; recombinant protein varied from 0 to 2 μM; absorbance with BSA subtracted; apparent Kd from the half-maximal binding concentration (GraphPad Prism 6)
Conditions in all cases: both partners purified

In experiment [1] the target is T1, elastin (purified from bovine neck ligament) (bovine, UniProt P04985 27-747).
T1 construct: elastin, bovine, purified from neck ligament; an insoluble protein; Insoluble material of tissue; used coated on wells (ELISA) and as a solid in the co-sedimentation; also called insoluble elastin; source: bought: Sigma-Aldrich (purified from bovine neck ligament)
T1 sequence (looked up): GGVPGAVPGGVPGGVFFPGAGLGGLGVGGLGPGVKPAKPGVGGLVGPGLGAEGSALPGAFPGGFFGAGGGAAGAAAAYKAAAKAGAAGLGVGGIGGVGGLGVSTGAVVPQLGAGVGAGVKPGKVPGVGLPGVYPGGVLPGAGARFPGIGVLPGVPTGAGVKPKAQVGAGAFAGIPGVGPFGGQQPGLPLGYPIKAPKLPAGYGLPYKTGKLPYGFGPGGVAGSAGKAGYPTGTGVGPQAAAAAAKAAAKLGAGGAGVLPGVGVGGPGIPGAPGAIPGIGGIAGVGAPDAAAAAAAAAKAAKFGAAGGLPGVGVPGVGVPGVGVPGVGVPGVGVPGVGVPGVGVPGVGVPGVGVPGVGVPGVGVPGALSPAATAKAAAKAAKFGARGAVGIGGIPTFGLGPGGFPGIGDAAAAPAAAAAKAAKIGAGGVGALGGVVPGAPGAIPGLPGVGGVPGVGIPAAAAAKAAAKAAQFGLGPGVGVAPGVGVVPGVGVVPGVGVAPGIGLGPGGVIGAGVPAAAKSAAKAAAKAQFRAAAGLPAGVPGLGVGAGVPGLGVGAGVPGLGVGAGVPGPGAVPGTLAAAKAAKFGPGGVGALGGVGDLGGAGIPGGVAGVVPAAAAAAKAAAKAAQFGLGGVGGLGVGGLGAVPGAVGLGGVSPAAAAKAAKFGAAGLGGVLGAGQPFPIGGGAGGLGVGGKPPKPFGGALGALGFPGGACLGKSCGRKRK

The target in experiment [2] is T2, laminin (purified from basement membrane of Engelbreth-Holm-Swarm mouse sarcoma) (mouse, UniProt P19137 25-3083; P02469 22-1786; P02468 34-1607).
T2 construct: source: bought: Sigma-Aldrich (purified from basement membrane of Engelbreth-Holm-Swarm mouse sarcoma)

Experiment [3] deals with T3, collagen Type IV (purified from basement membrane of Engelbreth-Holm-Swarm mouse sarcoma) (mouse, UniProt P02463 173-1669; P08122 184-1707).
T3 construct: collagen type IV alpha 1 chain, mouse; collagen type IV alpha 2 chain, mouse; also called collagen IV; source: bought: Sigma-Aldrich (purified from basement membrane of Engelbreth-Holm-Swarm mouse sarcoma)

Experiment [4] addresses T4, fibrinogen (purified from human plasma) (human, UniProt P02671-2 20-644; P02675 31-491; P02679-2 27-437).
T4 construct: fibrinogen alpha chain, human; fibrinogen beta chain, human; fibrinogen gamma chain, human; source: bought: Sigma-Aldrich (purified from human plasma)
T4 sequence (looked up) 1: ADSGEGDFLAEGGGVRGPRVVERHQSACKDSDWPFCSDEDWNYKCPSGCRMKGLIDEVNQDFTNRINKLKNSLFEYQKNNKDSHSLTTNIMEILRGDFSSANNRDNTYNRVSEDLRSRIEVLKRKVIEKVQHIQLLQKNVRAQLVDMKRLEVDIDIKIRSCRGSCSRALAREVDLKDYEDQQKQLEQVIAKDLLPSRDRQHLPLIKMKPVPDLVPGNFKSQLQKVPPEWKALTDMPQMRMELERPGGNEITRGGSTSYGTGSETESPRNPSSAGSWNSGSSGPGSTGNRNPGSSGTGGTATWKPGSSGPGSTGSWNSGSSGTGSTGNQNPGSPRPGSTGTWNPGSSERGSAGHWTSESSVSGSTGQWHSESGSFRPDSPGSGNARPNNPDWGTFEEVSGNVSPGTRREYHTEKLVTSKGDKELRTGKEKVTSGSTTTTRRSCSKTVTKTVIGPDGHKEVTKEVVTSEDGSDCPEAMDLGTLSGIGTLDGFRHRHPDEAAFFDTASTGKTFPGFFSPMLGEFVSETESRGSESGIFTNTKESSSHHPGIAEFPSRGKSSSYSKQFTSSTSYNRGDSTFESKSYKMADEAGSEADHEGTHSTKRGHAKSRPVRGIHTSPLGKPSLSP
T4 sequence (looked up) 2: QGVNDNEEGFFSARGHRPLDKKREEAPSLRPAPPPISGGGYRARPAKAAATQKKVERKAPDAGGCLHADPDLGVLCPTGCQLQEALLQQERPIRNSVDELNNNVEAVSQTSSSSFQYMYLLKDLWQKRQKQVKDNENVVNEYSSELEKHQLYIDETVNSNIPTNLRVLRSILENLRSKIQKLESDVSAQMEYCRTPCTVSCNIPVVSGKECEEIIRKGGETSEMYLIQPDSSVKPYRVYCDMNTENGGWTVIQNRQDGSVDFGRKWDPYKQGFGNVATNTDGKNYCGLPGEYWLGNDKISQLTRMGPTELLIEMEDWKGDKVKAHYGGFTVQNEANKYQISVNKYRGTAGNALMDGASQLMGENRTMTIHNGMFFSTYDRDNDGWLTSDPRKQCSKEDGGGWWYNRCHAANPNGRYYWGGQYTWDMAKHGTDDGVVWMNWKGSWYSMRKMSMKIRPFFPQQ
T4 sequence (looked up) 3: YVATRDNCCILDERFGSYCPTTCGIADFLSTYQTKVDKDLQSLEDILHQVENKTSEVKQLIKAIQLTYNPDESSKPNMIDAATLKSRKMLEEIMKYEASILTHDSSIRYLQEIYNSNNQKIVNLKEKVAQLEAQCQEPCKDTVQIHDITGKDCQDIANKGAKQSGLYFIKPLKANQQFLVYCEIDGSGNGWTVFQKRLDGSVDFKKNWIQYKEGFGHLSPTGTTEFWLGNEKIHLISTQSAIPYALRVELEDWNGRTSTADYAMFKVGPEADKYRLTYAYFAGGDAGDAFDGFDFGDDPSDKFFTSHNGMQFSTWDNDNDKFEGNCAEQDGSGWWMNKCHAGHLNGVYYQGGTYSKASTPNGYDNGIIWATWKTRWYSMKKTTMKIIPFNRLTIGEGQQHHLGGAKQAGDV

For experiment [5], the target named is T5, collagen Type I (purified from rat tail) (rat, UniProt P02454 152-1207; P02466 86-1125).
T5 construct: collagen type I alpha 1 chain, rat; collagen type I alpha 2 chain, rat; also called collagen I; source: bought: Sigma-Aldrich (purified from rat tail)
T5 sequence (P02454 152-1207, chain 1 of 2): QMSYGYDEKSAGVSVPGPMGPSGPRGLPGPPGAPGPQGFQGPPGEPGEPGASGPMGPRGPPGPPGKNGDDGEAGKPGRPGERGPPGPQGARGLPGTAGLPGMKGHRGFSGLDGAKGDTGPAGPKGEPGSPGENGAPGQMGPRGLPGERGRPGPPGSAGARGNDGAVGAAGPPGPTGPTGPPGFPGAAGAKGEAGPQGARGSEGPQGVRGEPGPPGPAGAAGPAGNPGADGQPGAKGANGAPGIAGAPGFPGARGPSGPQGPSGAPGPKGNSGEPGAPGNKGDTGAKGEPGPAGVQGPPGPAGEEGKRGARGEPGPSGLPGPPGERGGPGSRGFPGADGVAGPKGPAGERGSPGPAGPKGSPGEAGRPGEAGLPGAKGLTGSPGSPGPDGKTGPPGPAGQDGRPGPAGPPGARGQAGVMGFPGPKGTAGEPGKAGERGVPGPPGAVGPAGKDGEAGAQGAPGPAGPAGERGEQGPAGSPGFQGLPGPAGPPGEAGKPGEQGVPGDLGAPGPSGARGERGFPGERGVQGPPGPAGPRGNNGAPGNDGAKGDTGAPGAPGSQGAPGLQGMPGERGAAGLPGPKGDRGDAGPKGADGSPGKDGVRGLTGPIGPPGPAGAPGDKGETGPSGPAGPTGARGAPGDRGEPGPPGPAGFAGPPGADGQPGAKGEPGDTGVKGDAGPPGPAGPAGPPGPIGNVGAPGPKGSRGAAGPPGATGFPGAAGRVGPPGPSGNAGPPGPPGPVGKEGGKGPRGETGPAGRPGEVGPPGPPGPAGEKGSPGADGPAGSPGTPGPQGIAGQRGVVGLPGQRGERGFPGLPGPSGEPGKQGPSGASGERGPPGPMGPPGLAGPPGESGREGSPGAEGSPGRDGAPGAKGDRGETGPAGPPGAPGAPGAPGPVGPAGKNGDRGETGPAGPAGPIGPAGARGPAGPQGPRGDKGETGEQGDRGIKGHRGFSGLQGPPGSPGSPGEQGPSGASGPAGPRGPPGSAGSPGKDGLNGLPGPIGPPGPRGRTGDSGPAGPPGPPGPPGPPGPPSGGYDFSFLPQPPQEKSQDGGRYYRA
T5 sequence (P02466 86-1125, chain 2 of 2): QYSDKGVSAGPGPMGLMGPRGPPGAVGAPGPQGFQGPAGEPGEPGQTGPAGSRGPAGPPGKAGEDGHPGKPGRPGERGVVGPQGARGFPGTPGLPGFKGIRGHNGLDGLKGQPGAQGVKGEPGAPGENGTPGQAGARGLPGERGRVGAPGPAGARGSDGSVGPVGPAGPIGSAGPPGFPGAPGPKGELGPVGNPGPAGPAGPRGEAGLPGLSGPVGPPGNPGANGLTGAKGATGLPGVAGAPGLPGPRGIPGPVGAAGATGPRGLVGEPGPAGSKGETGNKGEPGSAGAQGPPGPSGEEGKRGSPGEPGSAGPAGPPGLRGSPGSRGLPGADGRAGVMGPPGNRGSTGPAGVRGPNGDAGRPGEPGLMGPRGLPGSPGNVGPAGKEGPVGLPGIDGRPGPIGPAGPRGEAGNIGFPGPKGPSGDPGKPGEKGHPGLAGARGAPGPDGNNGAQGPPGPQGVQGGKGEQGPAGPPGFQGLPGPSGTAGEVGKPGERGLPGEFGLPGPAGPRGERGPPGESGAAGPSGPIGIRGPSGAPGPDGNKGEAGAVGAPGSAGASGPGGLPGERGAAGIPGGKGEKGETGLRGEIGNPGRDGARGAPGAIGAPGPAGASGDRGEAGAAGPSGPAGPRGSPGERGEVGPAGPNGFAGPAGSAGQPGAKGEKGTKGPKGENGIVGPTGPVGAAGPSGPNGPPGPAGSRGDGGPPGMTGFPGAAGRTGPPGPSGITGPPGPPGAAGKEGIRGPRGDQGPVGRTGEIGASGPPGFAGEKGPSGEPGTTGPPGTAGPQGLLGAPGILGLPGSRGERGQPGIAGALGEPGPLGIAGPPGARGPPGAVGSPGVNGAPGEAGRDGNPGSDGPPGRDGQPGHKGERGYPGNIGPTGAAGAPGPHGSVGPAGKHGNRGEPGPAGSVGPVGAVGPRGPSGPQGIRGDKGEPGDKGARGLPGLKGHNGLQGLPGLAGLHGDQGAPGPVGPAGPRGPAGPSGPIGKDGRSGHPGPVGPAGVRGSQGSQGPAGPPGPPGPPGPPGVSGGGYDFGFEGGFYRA

T3 sequence (P02463 173-1669, chain 1 of 2): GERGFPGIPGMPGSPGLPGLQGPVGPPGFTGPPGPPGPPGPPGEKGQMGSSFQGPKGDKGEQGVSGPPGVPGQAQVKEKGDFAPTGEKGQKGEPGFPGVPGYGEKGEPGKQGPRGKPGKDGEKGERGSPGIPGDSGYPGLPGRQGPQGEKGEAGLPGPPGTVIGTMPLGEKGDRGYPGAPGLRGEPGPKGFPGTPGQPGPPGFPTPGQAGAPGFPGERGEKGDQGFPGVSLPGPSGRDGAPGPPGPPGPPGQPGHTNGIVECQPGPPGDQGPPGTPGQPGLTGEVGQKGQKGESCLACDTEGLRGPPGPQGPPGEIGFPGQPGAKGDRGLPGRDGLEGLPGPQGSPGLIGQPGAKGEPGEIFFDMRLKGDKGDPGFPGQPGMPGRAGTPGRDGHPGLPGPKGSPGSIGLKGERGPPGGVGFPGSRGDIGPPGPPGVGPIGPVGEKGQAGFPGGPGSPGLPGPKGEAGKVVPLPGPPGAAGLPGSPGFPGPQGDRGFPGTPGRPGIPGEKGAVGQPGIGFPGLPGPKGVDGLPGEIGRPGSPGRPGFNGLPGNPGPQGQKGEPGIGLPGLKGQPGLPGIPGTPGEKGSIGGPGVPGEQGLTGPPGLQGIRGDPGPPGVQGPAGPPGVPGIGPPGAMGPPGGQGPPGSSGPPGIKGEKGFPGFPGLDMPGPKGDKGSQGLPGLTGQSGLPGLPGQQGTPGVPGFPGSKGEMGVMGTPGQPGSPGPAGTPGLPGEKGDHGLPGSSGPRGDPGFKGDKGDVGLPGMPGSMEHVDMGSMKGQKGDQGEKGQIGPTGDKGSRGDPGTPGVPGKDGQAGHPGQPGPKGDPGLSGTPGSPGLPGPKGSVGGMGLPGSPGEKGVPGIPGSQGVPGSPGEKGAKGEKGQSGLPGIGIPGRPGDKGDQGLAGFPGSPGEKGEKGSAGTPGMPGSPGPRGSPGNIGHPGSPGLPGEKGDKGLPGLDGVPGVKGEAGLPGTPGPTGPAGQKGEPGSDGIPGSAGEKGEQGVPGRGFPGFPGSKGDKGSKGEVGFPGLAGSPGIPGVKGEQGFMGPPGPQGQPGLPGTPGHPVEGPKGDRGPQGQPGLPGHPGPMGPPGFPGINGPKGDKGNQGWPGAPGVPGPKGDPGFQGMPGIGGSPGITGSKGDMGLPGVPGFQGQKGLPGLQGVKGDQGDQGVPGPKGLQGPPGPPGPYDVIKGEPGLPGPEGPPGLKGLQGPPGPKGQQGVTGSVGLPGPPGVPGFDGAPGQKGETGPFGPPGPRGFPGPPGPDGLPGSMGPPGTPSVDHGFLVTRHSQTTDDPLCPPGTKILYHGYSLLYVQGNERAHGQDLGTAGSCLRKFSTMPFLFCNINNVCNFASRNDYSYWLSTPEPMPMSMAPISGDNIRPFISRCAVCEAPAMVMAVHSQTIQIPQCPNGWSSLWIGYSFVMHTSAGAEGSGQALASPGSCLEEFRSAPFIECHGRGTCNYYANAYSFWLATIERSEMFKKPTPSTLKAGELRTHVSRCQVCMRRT
T3 sequence (P08122 184-1707, chain 2 of 2): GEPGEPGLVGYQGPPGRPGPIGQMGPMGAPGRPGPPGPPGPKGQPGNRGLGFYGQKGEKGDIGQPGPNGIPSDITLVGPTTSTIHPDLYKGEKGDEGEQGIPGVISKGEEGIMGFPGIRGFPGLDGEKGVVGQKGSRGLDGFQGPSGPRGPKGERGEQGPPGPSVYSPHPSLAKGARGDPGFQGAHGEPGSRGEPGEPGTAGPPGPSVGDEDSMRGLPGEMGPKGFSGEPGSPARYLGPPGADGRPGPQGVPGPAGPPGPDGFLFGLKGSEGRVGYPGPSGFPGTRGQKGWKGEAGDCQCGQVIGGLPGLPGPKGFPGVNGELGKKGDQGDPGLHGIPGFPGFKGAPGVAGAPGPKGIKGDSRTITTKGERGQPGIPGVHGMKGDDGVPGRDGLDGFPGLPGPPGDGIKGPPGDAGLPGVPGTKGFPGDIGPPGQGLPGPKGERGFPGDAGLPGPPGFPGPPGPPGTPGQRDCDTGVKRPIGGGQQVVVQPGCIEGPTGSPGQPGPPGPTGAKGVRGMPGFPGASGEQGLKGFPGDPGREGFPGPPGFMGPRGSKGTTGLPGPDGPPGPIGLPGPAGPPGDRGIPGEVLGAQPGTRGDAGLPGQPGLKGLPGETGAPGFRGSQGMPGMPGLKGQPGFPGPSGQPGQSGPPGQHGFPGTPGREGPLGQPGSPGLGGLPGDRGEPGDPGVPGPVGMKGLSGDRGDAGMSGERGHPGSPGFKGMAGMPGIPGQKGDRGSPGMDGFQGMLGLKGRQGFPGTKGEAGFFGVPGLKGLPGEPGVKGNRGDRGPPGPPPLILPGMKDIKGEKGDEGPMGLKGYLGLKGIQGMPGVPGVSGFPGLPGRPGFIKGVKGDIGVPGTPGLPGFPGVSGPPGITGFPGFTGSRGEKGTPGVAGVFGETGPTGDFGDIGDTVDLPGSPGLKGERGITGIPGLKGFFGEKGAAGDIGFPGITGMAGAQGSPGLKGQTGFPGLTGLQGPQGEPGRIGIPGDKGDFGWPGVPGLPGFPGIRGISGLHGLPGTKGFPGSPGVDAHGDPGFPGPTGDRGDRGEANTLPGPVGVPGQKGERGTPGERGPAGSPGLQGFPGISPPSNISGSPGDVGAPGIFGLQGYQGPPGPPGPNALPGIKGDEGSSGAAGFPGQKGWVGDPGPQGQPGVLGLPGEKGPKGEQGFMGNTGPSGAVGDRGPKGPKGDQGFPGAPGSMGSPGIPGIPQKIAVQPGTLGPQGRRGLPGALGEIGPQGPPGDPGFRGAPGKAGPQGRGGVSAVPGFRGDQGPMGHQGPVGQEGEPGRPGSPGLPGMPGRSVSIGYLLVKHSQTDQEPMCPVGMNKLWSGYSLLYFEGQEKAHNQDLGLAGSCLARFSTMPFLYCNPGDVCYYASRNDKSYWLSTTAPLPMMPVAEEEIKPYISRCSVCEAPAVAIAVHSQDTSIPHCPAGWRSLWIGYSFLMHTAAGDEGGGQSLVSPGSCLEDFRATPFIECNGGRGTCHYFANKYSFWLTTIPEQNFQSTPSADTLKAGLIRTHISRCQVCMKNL

B1: GroEL protein of Leptospira interrogans (recombinant, His-tagged) (natural protein, UniProt P61438 1-546, looked up)
chain: MAKDIEYNETARRKLLEGVNKLANAVKVTLGPKGRNVVIDKKFGAPTITKDGVTVAKEIELEDPLENMGAQMVKEVSTKTNDVAGDGTTTATILAQSIINEGLKNVTAGANPMSLKKGIDKAVTAAVESIQKRAVKIENKKDIANVASISANNDNTIGNLIADAMDKVGKDGVITVEEAKSIETTLDVVEGMQFDRGYISPYMVTDAESMVATLNDPFILIYDKKISSMKDLIHILEKVAQAGKPLVIISEEVEGEALATIVVNTLRKTISCVAVKAPGFGDRRKSMLEDIAILTGGQVISEDLGMKLENTTLQMLGRANKVTVDKENTTIIEGKGQTKEIQGRIGQIKKQIEDTTSEYDREKLQERLAKLAGGVAVIHVGAATEVEMKEKKARVEDALSATRAAVEEGIVPGGGLTLLKAQEAVGSLKLDGDEATGAKIIFRALEEPIRMITSNAGLEGSVIVEHAKAKKGNEGFNALTMVWEDMIQAGVVDPAKVVRSALQNAASIGSMILTTEVTITDKPDKDAPNPMAGMGGGGMGGMGGMM
notes: GroEL (chaperonin 60, HSP60) of L. interrogans serovar Copenhageni strain Fiocruz L1-130, GenBank AAS69936.1, 60 kDa; Cloned BamHI/HindIII into the vector pAE; as far as I recall pAE adds an N-terminal His6 tag; also called chaperonin 60; Cpn60; source: LPS removed on Detoxi-Gel
In the case of B1, the Kd came to 23 ± 3 nM in experiment [1], 115 ± 12 nM in experiment [2] and 6 ± 1 nM in experiment [3].

B2: truncated form of leptospiral immunoglobulin-like protein B (LigBC, amino acids 631-1156) (domain or fragment)
chain: AEIKNTSGSKGITNTLTPGSSEISAALGSIKSSKVILKVTPAQLISIAVTPINPSVAKGLIRQFKATGTYTDHSVQDVTALATWSSSNPGKAMVNNVTGSVTTVATGNTNIKATIDSISGSSVLNVTPALLTSIEITPTINSITHGLTKQFKATGIFSDKSTQNLTQLVTWISSDPSKIEIENTSGKKGIATASKLGSSNIKAVYKFIQSSPIPITVTDLKLKSITISPSSSSIAKGLTQQFKAIGTFIDGSEQEITNLVTWYSSKSDVAPINNAANAKGLATALSIGSSNISAIYNSISSNKINFNVSAATLDSIKINPVNNNIAKGLTQQYTALGVYSDSTIQDISDSVTWSSSNSDSISISNSTETKGKATALQIGNSKITATYNSISENIDITVSAATLSSISISPINTNINATVSKQFFAVGTYSDGTKADLTSSVTWSSSNKSQAKVSNASKTKGLVTGIASGNSIITATYGSVSGNTILTVNKTDTIAPTVQSVVSLSPTTIQVVYSESINNKEALDLS
notes: leptospiral immunoglobulin-like protein B (LigB), GenBank AAS69085, amino acids 631-1156, 56 kDa; half of immunoglobulin-like repeat 7 plus domains 8 to 12; source: LPS removed on Detoxi-Gel
For the molecule B2, the Kd in experiment [4] turned out to be 4 ± 1 nM; in experiment [1], 4 ± 1 nM; in experiment [5], 8 ± 2 nM; in experiment [2], 41 ± 3 nM; in experiment [3] it was 7 ± 1 nM.

For the origin of these results see article PMC8011160, “GroEL protein of the Leptospira spp. interacts with host proteins and induces cytokines secretion on macrophages” (BMC Microbiology, 2021).
